# Laboratory results taken from patent publication US20160145328A1 (published 2016).
# Where two headings read alike, the source gives them in different places.
# B1: DP47 VH A33D (other, name in Kabat numbering)
# VH: QVQLLESGGGLVQPGGSLRLSCAASGFTFSSYDMSWVRQAPGKGLEWVSAISGSGGSTYYADSVKGRFTISRDNSKNTLYLQMNSLRAEDTAVYYCAKSYGAFDYWGQGTLVTVSS
# B2: DP47 VH T28R (other, name in Kabat numbering)
# VH: QVQLLESGGGLVQPGGSLRLSCAASGFRFSSYAMSWVRQAPGKGLEWVSAISGSGGSTYYADSVKGRFTISRDNSKNTLYLQMNSLRAEDTAVYYCAKSYGAFDYWGQGTLVTVSS
# B3: DP47 VH Y32D (other, name in Kabat numbering)
# VH: QVQLLESGGGLVQPGGSLRLSCAASGFTFSSDAMSWVRQAPGKGLEWVSAISGSGGSTYYADSVKGRFTISRDNSKNTLYLQMNSLRAEDTAVYYCAKSYGAFDYWGQGTLVTVSS
# B4: DP47 VH Q39D (other, name in Kabat numbering)
# VH: QVQLLESGGGLVQPGGSLRLSCAASGFTFSSYAMSWVRDAPGKGLEWVSAISGSGGSTYYADSVKGRFTISRDNSKNTLYLQMNSLRAEDTAVYYCAKSYGAFDYWGQGTLVTVSS
# B5: DP47 VH S35D + S31D (other, name in Kabat numbering)
# VH: QVQLLESGGGLVQPGGSLRLSCAASGFTFSDYAMDWVRQAPGKGLEWVSAISGSGGSTYYADSVKGRFTISRDNSKNTLYLQMNSLRAEDTAVYYCAKSYGAFDYWGQGTLVTVSS
# B6: DP47 VH T28D + S35D (other, name in Kabat numbering)
# VH: QVQLLESGGGLVQPGGSLRLSCAASGFDFSSYAMDWVRQAPGKGLEWVSAISGSGGSTYYADSVKGRFTISRDNSKNTLYLQMNSLRAEDTAVYYCAKSYGAFDYWGQGTLVTVSS
# B7: DP47 VH S30D (other, name in Kabat numbering)
# VH: QVQLLESGGGLVQPGGSLRLSCAASGFTFDSYAMSWVRQAPGKGLEWVSAISGSGGSTYYADSVKGRFTISRDNSKNTLYLQMNSLRAEDTAVYYCAKSYGAFDYWGQGTLVTVSS
# B8: DP47 VH S35D + A33D (other, name in Kabat numbering)
# VH: QVQLLESGGGLVQPGGSLRLSCAASGFTFSSYDMDWVRQAPGKGLEWVSAISGSGGSTYYADSVKGRFTISRDNSKNTLYLQMNSLRAEDTAVYYCAKSYGAFDYWGQGTLVTVSS
# B9: DP47 VH T28D + S31D (other, name in Kabat numbering)
# VH: QVQLLESGGGLVQPGGSLRLSCAASGFDFSDYAMSWVRQAPGKGLEWVSAISGSGGSTYYADSVKGRFTISRDNSKNTLYLQMNSLRAEDTAVYYCAKSYGAFDYWGQGTLVTVSS
# B10: DP47 VH A33E (other, name in Kabat numbering)
# VH: QVQLLESGGGLVQPGGSLRLSCAASGFTFSSYEMSWVRQAPGKGLEWVSAISGSGGSTYYADSVKGRFTISRDNSKNTLYLQMNSLRAEDTAVYYCAKSYGAFDYWGQGTLVTVSS
# B11: DP47 VH S35D + S30D (other, name in Kabat numbering)
# VH: QVQLLESGGGLVQPGGSLRLSCAASGFTFDSYAMDWVRQAPGKGLEWVSAISGSGGSTYYADSVKGRFTISRDNSKNTLYLQMNSLRAEDTAVYYCAKSYGAFDYWGQGTLVTVSS
# B12: DP47 VH S35G (other, name in Kabat numbering)
# VH: QVQLLESGGGLVQPGGSLRLSCAASGFTFSSYAMGWVRQAPGKGLEWVSAISGSGGSTYYADSVKGRFTISRDNSKNTLYLQMNSLRAEDTAVYYCAKSYGAFDYWGQGTLVTVSS
# B13: DP47 VH T28D + Y32D (other, name in Kabat numbering)
# VH: QVQLLESGGGLVQPGGSLRLSCAASGFDFSSDAMSWVRQAPGKGLEWVSAISGSGGSTYYADSVKGRFTISRDNSKNTLYLQMNSLRAEDTAVYYCAKSYGAFDYWGQGTLVTVSS
# B14: DP47 VH A40D (other, name in Kabat numbering)
# VH: QVQLLESGGGLVQPGGSLRLSCAASGFTFSSYAMSWVRQDPGKGLEWVSAISGSGGSTYYADSVKGRFTISRDNSKNTLYLQMNSLRAEDTAVYYCAKSYGAFDYWGQGTLVTVSS
# B15: DP47 VH S35D (other, name in Kabat numbering)
# VH: QVQLLESGGGLVQPGGSLRLSCAASGFTFSSYAMDWVRQAPGKGLEWVSAISGSGGSTYYADSVKGRFTISRDNSKNTLYLQMNSLRAEDTAVYYCAKSYGAFDYWGQGTLVTVSS
# B16: DP47 VH T28D (other, name in Kabat numbering)
# VH: QVQLLESGGGLVQPGGSLRLSCAASGFDFSSYAMSWVRQAPGKGLEWVSAISGSGGSTYYADSVKGRFTISRDNSKNTLYLQMNSLRAEDTAVYYCAKSYGAFDYWGQGTLVTVSS
# B17: DP47 VH G26D (other, name in Kabat numbering)
# VH: QVQLLESGGGLVQPGGSLRLSCAASDFTFSSYAMSWVRQAPGKGLEWVSAISGSGGSTYYADSVKGRFTISRDNSKNTLYLQMNSLRAEDTAVYYCAKSYGAFDYWGQGTLVTVSS
# B18: DP47 VH T28E (other, name in Kabat numbering)
# VH: QVQLLESGGGLVQPGGSLRLSCAASGFEFSSYAMSWVRQAPGKGLEWVSAISGSGGSTYYADSVKGRFTISRDNSKNTLYLQMNSLRAEDTAVYYCAKSYGAFDYWGQGTLVTVSS
# B19: DP47 VH T28D + A33D (other, name in Kabat numbering)
# VH: QVQLLESGGGLVQPGGSLRLSCAASGFDFSSYDMSWVRQAPGKGLEWVSAISGSGGSTYYADSVKGRFTISRDNSKNTLYLQMNSLRAEDTAVYYCAKSYGAFDYWGQGTLVTVSS
# B20: DP47 VH T28D + S30D (other, name in Kabat numbering)
# VH: QVQLLESGGGLVQPGGSLRLSCAASGFDFDSYAMSWVRQAPGKGLEWVSAISGSGGSTYYADSVKGRFTISRDNSKNTLYLQMNSLRAEDTAVYYCAKSYGAFDYWGQGTLVTVSS
# B21: DP47 VH S35D + Y32D (other, name in Kabat numbering)
# VH: QVQLLESGGGLVQPGGSLRLSCAASGFTFSSDAMDWVRQAPGKGLEWVSAISGSGGSTYYADSVKGRFTISRDNSKNTLYLQMNSLRAEDTAVYYCAKSYGAFDYWGQGTLVTVSS
# B22: DP47 VH S35E (other, name in Kabat numbering)
# VH: QVQLLESGGGLVQPGGSLRLSCAASGFTFSSYAMEWVRQAPGKGLEWVSAISGSGGSTYYADSVKGRFTISRDNSKNTLYLQMNSLRAEDTAVYYCAKSYGAFDYWGQGTLVTVSS
# B23: DP47 VH A40E (other, name in Kabat numbering)
# VH: QVQLLESGGGLVQPGGSLRLSCAASGFTFSSYAMSWVRQEPGKGLEWVSAISGSGGSTYYADSVKGRFTISRDNSKNTLYLQMNSLRAEDTAVYYCAKSYGAFDYWGQGTLVTVSS
# B24: DP47 VH G26E (other, name in Kabat numbering)
# VH: QVQLLESGGGLVQPGGSLRLSCAASEFTFSSYAMSWVRQAPGKGLEWVSAISGSGGSTYYADSVKGRFTISRDNSKNTLYLQMNSLRAEDTAVYYCAKSYGAFDYWGQGTLVTVSS
# B25: DP47 VH Q39E (other, name in Kabat numbering)
# VH: QVQLLESGGGLVQPGGSLRLSCAASGFTFSSYAMSWVREAPGKGLEWVSAISGSGGSTYYADSVKGRFTISRDNSKNTLYLQMNSLRAEDTAVYYCAKSYGAFDYWGQGTLVTVSS
# B26: DP47 VH S31E (other, name in Kabat numbering)
# VH: QVQLLESGGGLVQPGGSLRLSCAASGFTFSEYAMSWVRQAPGKGLEWVSAISGSGGSTYYADSVKGRFTISRDNSKNTLYLQMNSLRAEDTAVYYCAKSYGAFDYWGQGTLVTVSS
# B27: DP47 VH S30E (other, name in Kabat numbering)
# VH: QVQLLESGGGLVQPGGSLRLSCAASGFTFESYAMSWVRQAPGKGLEWVSAISGSGGSTYYADSVKGRFTISRDNSKNTLYLQMNSLRAEDTAVYYCAKSYGAFDYWGQGTLVTVSS
# How the values were obtained:
# Experiment in all cases: Heat/Cool phage ELISA: phage-displayed VH, 80 C 10 min then 4 C 10 min, captured on coated protein A; signal as % of untreated sample
# protein A [1] = target: T1, protein A (UniProt P38507 37-477)
# T1 construct: also called Protein A superantigen
# Method: (§1) The aggregation-resistance of clones was analyzed by measuring retention of signal after heat incubation in a phage ELISA format (McCafferty et al., 1990; Jespers et al., 2004). Wells of a Nunc Maxisorp Immuno-plate were coated overnight with protein A at a concentration of about 5 μg/ml in phosphate-buffered saline (PBS). The plate was washed once with PBS and blocked with about 4% (w/v) milk powder diluted in PBS (MPBS). Single colonies were picked from agar plates and grown overnight in 2×TY medium (containing about 16 g/L tryptone; about 10 g/L yeast extract; about 5 g/L NaCl, pH 7.0) supplemented with about 15 μg/ml tetracycline shaking at about 30° C. Cells were removed by centrifugation and phages were biotinylated directly in the culture supernatant by adding biotin-PEO₄-N-hydroxysuccinimide (Pierce; about 50 μM final concentration). For heat selection, supernatant was first incubated at about 80° C. for about 10 min and then at about 4° C. for about 10 min. Supernatant was added to the blocked ELISA wells. After three washes with PBS, bound phage particles were detected using an Extravidin-HRP conjugate (Sigma) and 3,3′,5,5′-tetramethylbenzidine (TMB) substrate. Absorbance was calculated by subtracting measurements at 450 and 650 nm.
# Single amino acid changes in the CDR1 region of the DP47 VH domain, and combinations thereof, were constructed and tested for aggregation-resistance, as detailed above (see the Materials and Methods section). […] Correctly folded VH were captured by protein A ELISA and the absorbance signal of the treated sample was calculated as a percentage of the untreated sample.
# protein A [2] = target: T1, protein A; remark: listed apart in the source
# Method: as §1
# To identify additional residues in CDR1 that confer aggregation-resistance on VH, surface-exposed residues of DP47 between positions 26 to 35 (numbering according to the Kabat numbering system) were substituted for aspartic acid (D) or glutamic acid (E). Framework residues at positions 39 and 40 were also substituted for aspartic acid (D) or glutamic acid (E). […] Correctly folded VH were captured by protein A ELISA and the absorbance signal of the treated sample was calculated as a percentage of the untreated sample.
# protein A [3] = target: T1, protein A; remark: listed apart in the source
# Method: as §1
# VH domains were produced comprising negatively charged amino acids at positions 28 and/or 35 in CDR1 of DP47 and at least one other position, as set out in Table 7. Aggregation-resistance of the VH domains was assessed using the “Heat/Cool” assay as described in Example 1.2.
binder,measurement,setting,value
B1,Retained binding to protein A,protein A [1],26%
same,Retained binding to protein A (%),protein A [2],10%
B2,Retained binding to protein A,protein A [1],2%
B3,Retained binding to protein A (%),protein A [2],41.8%
B4,Retained binding to protein A (%),protein A [2],3.7%
B5,Retained binding to protein A (%),protein A [3],48.3%
B6,Retained binding to protein A (%),protein A [3],45.8%
B7,Retained binding to protein A (%),protein A [2],21.8%
B8,Retained binding to protein A (%),protein A [3],40.3%
B9,Retained binding to protein A (%),protein A [3],44.8%
B10,Retained binding to protein A (%),protein A [2],2%
B11,Retained binding to protein A (%),protein A [3],43.5%
B12,Retained binding to protein A,protein A [1],4%
B13,Retained binding to protein A (%),protein A [3],64.7%
B14,Retained binding to protein A (%),protein A [2],2.8%
B15,Retained binding to protein A (%),protein A [2],12.8%
B16,Retained binding to protein A (%),protein A [2],25.1%
B17,Retained binding to protein A (%),protein A [2],6.1%
B18,Retained binding to protein A (%),protein A [2],6.5%
B19,Retained binding to protein A (%),protein A [3],62%
B20,Retained binding to protein A (%),protein A [3],39.4%
B21,Retained binding to protein A (%),protein A [3],61%
B22,Retained binding to protein A (%),protein A [2],4.5%
B23,Retained binding to protein A (%),protein A [2],1.9%
B24,Retained binding to protein A (%),protein A [2],1.8%
B25,Retained binding to protein A (%),protein A [2],2.5%
B26,Retained binding to protein A (%),protein A [2],6.1%
B27,Retained binding to protein A (%),protein A [2],2.1%
